The target of data set [1] is T1, MBD of MeCP2 (wild type) (human/mouse (residues 76-167 identical), UniProt P51608 76-167). In words: EMSA/T4 endonuclease V.
In data set [2] the target is T1, MBD of MeCP2 (wild type). In words: EMSA.
The target in data set [3] is T1, MBD of MeCP2 (wild type). Kind of data set: EMSA/T4 endonuclease V. The source holds these as a separate data set. On the technique in general: In EMSA bound probe runs differently from free probe, usually more slowly.
Data set [4] addresses T1, MBD of MeCP2 (wild type). In words: EMSA. The source holds these as a separate data set.
Data set [5] has as its target T1, MBD of MeCP2 (wild type). In words: EMSA. This is another data set of the same source.

The results in this text go back to article PMC2978359.

T1 sequence (P51608 76-167): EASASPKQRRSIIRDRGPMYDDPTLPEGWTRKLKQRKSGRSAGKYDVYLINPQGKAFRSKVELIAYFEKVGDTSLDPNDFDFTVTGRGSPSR

B1: T=TTmCG•mCGAAA CPD duplex (dsDNA)
DNA 1: TAGAAGAATTTCGTTCCAGA
DNA 2: TCTGGAACGAAATTCTTCTA
modifications: 5-methyl-dC at strand 1 pos 12 and strand 2 pos 8; cis-syn CPD between T9 and T10
For orientation: Kd means a measure of binding affinity in units of concentration. A higher Kd goes with weaker binding. Consider B1, for which the dissociation constant (Kd) with MBD of MeCP2 (wild type) [1] was 47 ± 14 nM.

B2: TmCG•mCGA duplex (dsDNA)
DNA 1: TAGAAGAATTTCGTTCCAGA
DNA 2: TCTGGAACGAAATTCTTCTA
modifications: 5-methyl-dC at strand 1 pos 12 and strand 2 pos 8
Turning to B2, the Kd was found to be 35 ± 9 nM with MBD of MeCP2 (wild type) [2] and 75 ± 35 nM in the data set with MBD of MeCP2 (wild type) [3].

B3: CmCG•mCGG in AT tract (dsDNA)
DNA 1: TTATTTTTATCCGTTTTTAATTAT
DNA 2: ATAATTAAAAACGGATAAAAATAA
modifications: 5-methyl-dC at strand 1 pos 12 and strand 2 pos 12
As for B3, the Kd in the data set with MBD of MeCP2 (wild type) [4] is about 15 nM.

B4: C=mCG•mCGG CPD duplex (dsDNA)
DNA 1: TAGAAGAATTCCGTTCCAGA
DNA 2: TCTGGAACGGAATTCTTCTA
modifications: 5-methyl-dC at strand 1 pos 12 and strand 2 pos 8; cis-syn CPD between C11 and mC12
In the data set with MBD of MeCP2 (wild type) [1], B4 gave a Kd of 11 ± 3 nM.

B5: CmCG•mCGG duplex (BDNF promoter III) (dsDNA)
DNA 1: TAGAAGAATTCCGTTCCAGA
DNA 2: TCTGGAACGGAATTCTTCTA
modifications: 5-methyl-dC at strand 1 pos 12 and strand 2 pos 8
Regarding B5, the Kd with MBD of MeCP2 (wild type) [3] turned out to be 46 ± 26 nM; in the data set with MBD of MeCP2 (wild type) [5] it was 12.5 ± 3.5 nM.

B6: T=TmCG•mCGAA CPD duplex (dsDNA)
DNA 1: TAGAAGAATTTCGTTCCAGA
DNA 2: TCTGGAACGAAATTCTTCTA
modifications: 5-methyl-dC at strand 1 pos 12 and strand 2 pos 8; cis-syn CPD between T10 and T11
In the data set with MBD of MeCP2 (wild type) [1], B6 gave a Kd of 13 ± 3 nM.

B7: CTG•mCGG single-mismatch duplex (dsDNA)
DNA 1: TAGAAGAATTCTGTTCCAGA
DNA 2: TCTGGAACGGAATTCTTCTA
modifications: 5-methyl-dC at strand 2 pos 8
Molecule B7 came in with a dissociation constant Kd with MBD of MeCP2 (wild type) [2] of 66 ± 22 nM.
